Measurements as given in publication PMC4212957, “The serodominant secreted effector protein of Salmonella, SseB, is a strong CD4 antigen containing an immunodominant epitope presented by diverse HLA class II alleles” (Immunology, 2014).

What was measured:
[1] = molecular target: HLA-DRB1*04:01 (Homo sapiens, UniProt P01903+P01911, A100K/A169T/F76Y/I96L/K127E/L162R/M171V/N62H/P40V/Q125Y/R42H/S133A/S149N/S66Y/V115G/V209L/W38E); settings: competitive ELISA; ratio IC50 of peptide / IC50 of reference peptide HA 306–318; lower = higher affinity; ratio 20 or less high, 20–100 moderate; three independent experiments
[2] = molecular target: HLA-DRB1*11:01 (Homo sapiens, UniProt P01903+P01911, A100R/A169T/A87E/I96F/K41T/L162R/M171V/P40S/Q125H/Q178H/Q39Y/Q99D/R42S/S66Y/T262R/V115G/W38E); settings: competitive ELISA; ratio IC50 of peptide / IC50 of reference peptide HA 306–318; lower = higher affinity; ratio 20 or less high, 20–100 moderate; three independent experiments
[3] = tested on: draining lymph node cells of HLA-DR4 transgenic mice; experiment: Murine IFN-γ ELISpot, HLA-DR4 transgenic mice primed with SseB; settings: mouse, in vivo
From the text: (§1) Mice transgenic for HLA-DR1 (that is, HLA-DRA1*0101/HLA-DRB1*0101) and HLA-DR4 (that is, HLA-DRA1*0101/HLA-DRB1*0401)[24]–[26] were bred and housed in the Centre for Biological Services at the Hammersmith campus, Imperial College London, UK, in accordance with Home Office regulations and College ethics review. Both transgenic lines are maintained on a C57BL/6 background as homozygotes for knockout of murine MHC Class II H2-Aβ.[27]
(§2) HLA-DR1 or HLA-DR4 transgenic mice were primed, by subcutaneous injection into the footpad, with 25 μg of recombinant SseB protein administered as a 1 : 1 emulsion with TiterMax® Gold (CytRx Corporation, Los Angeles, CA). Ten days after priming, popliteal draining lymph nodes were harvested and stimulated, in triplicate, at 2 × 10^5 cells per well with 25 μg of SseB peptide or recombinant protein in pre-coated murine IFN-γ ELISpot plates (2BScientific, Upper Heyford, Oxfordshire, UK). Culture medium was RPMI-1640 containing 2 mM L-glutamine, 50 U/ml penicillin G, 50 μg/ml streptomycin sulphate, 50 μM β-mercaptoethanol and 10% fetal calf serum. Cells were cultured at 37° and in 5% CO2 for 72 hr before assay development using a biotinylated anti-IFN-γ antibody, a horseradish peroxidase detection antibody and TMB substrate (2BScientific). Developed plates were left to dry before spot counting using an AID ELISpot reader (Autoimmun Diagnostika GMBH). Positive epitopes for a given transgenic line were defined as those where more than half of assayed animals gave a greater number of spot-forming cells than 2 SD over the mean of the no protein/peptide control.
(§3) Fig 1 Definition of HLA-DR specific T-cell epitopes in DR1 and DR4 transgenic mice. (a) HLA-DR1 (n = 5) and (b) HLA-DR4 (n = 6) mice were footpad primed with ssEB protein in combination with TiterMax® Gold adjuvant. Draining lymph node (DLN) cells were assayed by ELISpot at day 10 for interferon-γ (IFN-γ) T-cell responses to ssEB peptides and protein. A peptide was defined as containing a T-cell epitope for DR1 or DR4 HLA molecules if more than half of the mice assayed gave a greater number of spot-forming cells than 2 SD over the mean of the no peptide/protein control. The 2 SD value for each transgenic line is shown by a dotted line.

[4] = molecular target: T1, HLA-DRB1*09:01 (Homo sapiens, UniProt P01903+P01911, A100R/A103E/D57H/D86V/F55Y/F60I/F76Y/I96F/K127E/L162R/M171V/P40D/Q125H/Q99R/R33Q/R42F/S133A/S66N/T210M/V115G/W38K/Y107V/Y59G/Y89S); experiment: Peptide/HLA-DR binding, competitive ELISA; settings: ratio IC50 of peptide / IC50 of reference peptide CTP 427–441, lower = higher affinity, ratio 20 or less high, 20–100 moderate, three independent experiments
T1 construct: HLA-DR heterodimers were purified from homozygous Epstein–Barr virus B-lymphoblastoid cell lines; host or cells: homozygous EBV B-lymphoblastoid cell line
Protocol: (§4) HLA-DR heterodimers were purified from homozygous Epstein–Barr virus B-lymphoblastoid cell lines (HPA Culture Collections, Salisbury, UK) by affinity chromatography with the monomorphic HLA-DRα monoclonal antibody, L243.[29],[30] Binding of the SseB peptide panel to the HLA-DR molecules HLA-DRB1*01:01, 03:01, 04:01, 07:01, 09:01, 11:01, 12:02, 15:01, 15:02 was assessed by competitive ELISA, as previously described, using an automated workstation.[29],[30] We evaluated the peptide concentration able to prevent binding of 50% of the labelled peptide (IC50). Data were expressed as relative affinity: ratio of the IC50 of the peptide to the IC50 of the reference peptide, which is a high binder to the HLA class II molecule. Unlabelled forms of the biotinylated peptides were used as reference peptides.

[5] = molecular target: T2, HLA-DRB1*03:01 (Homo sapiens, UniProt P01903+P01911, A100K/A102G/A103R/A169T/F55Y/I96L/K41T/L162R/M171V/P40S/Q125H/Q178H/Q39Y/R42S/S66N/T106N/T262R/W38E/Y61H); experiment: Peptide/HLA-DR binding, competitive ELISA; settings: ratio IC50 of peptide / IC50 of reference peptide MT2-16, lower = higher affinity, ratio 20 or less high, 20–100 moderate, three independent experiments
T2 construct: HLA-DR heterodimers were purified from homozygous Epstein–Barr virus B-lymphoblastoid cell lines; host or cells: homozygous EBV B-lymphoblastoid cell line
Protocol: as §4

[6] = molecular target: HLA-DRB1*12:02 (Homo sapiens, UniProt P01903+P01911, A100R/A169T/D57E/D86V/F55L/H45Y/I96F/K41T/L162R/M171V/P40S/Q125H/Q178H/Q39Y/Q99D/R42G/S66L/T262R/V114A/V67L/W38E/Y59H/Y61H/Y89S); experiment: Peptide/HLA-DR binding, competitive ELISA; settings: ratio IC50 of peptide / IC50 of reference peptide TFR 141–155, lower = higher affinity, ratio 20 or less high, 20–100 moderate, three independent experiments
Protocol: as §4

[7] = molecular target: T3, HLA-DRB1*15:02 (Homo sapiens, UniProt P01903+P01911, V115G); experiment: Peptide/HLA-DR binding, competitive ELISA; settings: ratio IC50 of peptide / IC50 of reference peptide TFR 607–620, lower = higher affinity, ratio 20 or less high, 20–100 moderate, three independent experiments
T3 construct: HLA-DR heterodimers were purified from homozygous Epstein–Barr virus B-lymphoblastoid cell lines; host or cells: homozygous EBV B-lymphoblastoid cell line
Protocol: as §4

[8] = molecular target: T4, HLA-DRB1*15:01 (Homo sapiens, UniProt P01903+P01911); experiment: Peptide/HLA-DR binding, competitive ELISA; settings: ratio IC50 of peptide / IC50 of reference peptide A3 152–166, lower = higher affinity, ratio 20 or less high, 20–100 moderate, three independent experiments
T4 construct: HLA-DR heterodimers were purified from homozygous Epstein–Barr virus B-lymphoblastoid cell lines; host or cells: homozygous EBV B-lymphoblastoid cell line
Protocol: as §4

[9] = molecular target: HLA-DRB1*01:01 (Homo sapiens, UniProt P01903+P01911, A100R/D57E/F55L/F60I/F76Y/I96L/L162R/M171V/P40L/Q125E/R42F/V115G/Y59C); settings: competitive ELISA; ratio IC50 of peptide / IC50 of reference peptide HA 306–318; lower = higher affinity; ratio 20 or less high, 20–100 moderate; three independent experiments
[10] = molecular target: HLA-DRB1*07:01 (Homo sapiens, UniProt P01903+P01911, A100R/A102G/A103Q/D57E/D86V/E43K/F76Y/K127E/L162R/M171V/P40G/Q125H/Q99D/R33Q/R42Y/R54Q/S133A/S66F/T210M/V115G/Y107V/Y59L/Y89S); settings: competitive ELISA; ratio IC50 of peptide / IC50 of reference peptide HA 306–318; lower = higher affinity; ratio 20 or less high, 20–100 moderate; three independent experiments
[11] = tested on: draining lymph node cells of HLA-DR1 transgenic mice; experiment: Murine IFN-γ ELISpot, HLA-DR1 transgenic mice primed with SseB; settings: mouse, in vivo
From the text: as §1, §2, §3

[12] = tested on: Salmonella SL1344; settings: C57BL/6 mice, immunization with two doses; cited from earlier work
From the text: There have been a limited number of studies aimed at exploring candidates from the S. Typhi immunome for serodiagnostic, serodominant or protective credentials with respect to B-cell or T-cell immunity.[16]–[19] Some candidate antigens have been successfully deployed to induce protective immunity against challenge in mice; these antigens include OmpL, SseB, SseD and CirA.[16],[18],[19] Antigen arrays have been informative: an array of 2724 Salmonella enterica serovar Typhi antigens, selected on the basis of key terms such as ‘outer membrane’ or ‘chaperone’, representing over 63% of the proteom ...

Molecule | Relative binding affinity of peptide to HLA-DR molecules DRB1*0401 [1] | Relative binding affinity of peptide to HLA-DR molecules DRB1*1101 [2] | IFN-γ ELISpot recall response / CD4 epitope in HLA-DR4 transgenic mice [3] | Relative binding affinity of peptide to HLA-DR molecules DRB1*0901 [4] | Relative binding affinity of peptide to HLA-DR molecules DRB1*0301 [5] | Relative binding affinity of peptide to HLA-DR molecules DRB1*1202 [6] | Relative binding affinity of peptide to HLA-DR molecules DRB1*1502 [7] | Relative binding affinity of peptide to HLA-DR molecules DRB1*1501 [8] | Relative binding affinity of peptide to HLA-DR molecules DRB1*0101 [9] | Relative binding affinity of peptide to HLA-DR molecules DRB1*0701 [10] | IFN-γ ELISpot recall response / CD4 epitope in HLA-DR1 transgenic mice [11] | protection from oral challenge (mean survival time and tissue bacterial burden) [12]
14: SseB overlapping library peptide, residues 131–150 (KLDKGGLQAIKAALDNDANR) [Peptide 14] | 13 | > 278 | CD4 epitopes detected | 50 | > 119 | 71 | > 3 333 | 10 | 335 | 17 | – | –
MSSGNILWGSQNPIVFKNSF [Peptide 1] | 12 | > 278 | – | > 689 | > 119 | 3 | > 3 333 | 7 | 447 | 6 | – | –
SseB: Recombinant SseB protein of Salmonella, codon optimized, expressed in E. coli (protein, UniProt Q7BVH7 1-196, looked up, recombinant, codon optimized, E. coli expressed) Secreted effector protein SseB: MSSGNILWGSQNPIVFKNSFGVSNADTGSQDDLSQQNPFAEGYGVLLILLMVIQAIANNKFIEVQKNAERARNTQEKSNEMDEVIAKAAKGDAKTKEEVPEDVIKYMRDNGILIDGMTIDDYMAKYGDHGKLDKGGLQAIKAALDNDANRNTDLMSQGQITIQKMSQELNAVLTQLTGLISKWGEISSMIAQKTYS | – | – | relatively large response | – | – | – | – | – | – | – | highly immunogenic | substantial protection
